Test results from patent publication US20050158311A1.

Tests used:
Assay in all cases: cell-based or functional assay
[1] = target: endogenous Ryk of mouse (brain cell lysate; DRG explants) (mouse) (UniProt Q01887)
[2] = target: over-expressed Ryk (from a transfected DNA construct expressing Ryk)
[3] = target: Dishevelled (overexpressed in 293T cells)
[4] = target: endogenous Ryk of 293T cells (human) (UniProt P34925)
Chain of UniProt P34925 (P34925 26-607 limits assumed): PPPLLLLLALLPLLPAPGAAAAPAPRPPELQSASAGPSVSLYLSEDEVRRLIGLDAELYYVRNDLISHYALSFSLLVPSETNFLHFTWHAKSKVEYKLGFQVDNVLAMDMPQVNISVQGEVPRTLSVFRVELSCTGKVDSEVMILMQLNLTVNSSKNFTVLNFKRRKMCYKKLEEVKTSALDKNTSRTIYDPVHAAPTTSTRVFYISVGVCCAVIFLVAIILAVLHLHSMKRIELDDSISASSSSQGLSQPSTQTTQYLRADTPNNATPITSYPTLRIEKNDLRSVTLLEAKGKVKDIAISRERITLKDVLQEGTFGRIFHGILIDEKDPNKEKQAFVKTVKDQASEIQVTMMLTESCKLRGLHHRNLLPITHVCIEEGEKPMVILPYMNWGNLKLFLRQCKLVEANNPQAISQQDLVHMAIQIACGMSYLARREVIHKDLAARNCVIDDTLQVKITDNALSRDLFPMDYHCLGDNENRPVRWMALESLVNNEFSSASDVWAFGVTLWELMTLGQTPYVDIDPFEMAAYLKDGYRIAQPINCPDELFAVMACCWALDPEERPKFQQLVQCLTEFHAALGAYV

Chain of UniProt Q01887 (Q01887 35-594 limits assumed): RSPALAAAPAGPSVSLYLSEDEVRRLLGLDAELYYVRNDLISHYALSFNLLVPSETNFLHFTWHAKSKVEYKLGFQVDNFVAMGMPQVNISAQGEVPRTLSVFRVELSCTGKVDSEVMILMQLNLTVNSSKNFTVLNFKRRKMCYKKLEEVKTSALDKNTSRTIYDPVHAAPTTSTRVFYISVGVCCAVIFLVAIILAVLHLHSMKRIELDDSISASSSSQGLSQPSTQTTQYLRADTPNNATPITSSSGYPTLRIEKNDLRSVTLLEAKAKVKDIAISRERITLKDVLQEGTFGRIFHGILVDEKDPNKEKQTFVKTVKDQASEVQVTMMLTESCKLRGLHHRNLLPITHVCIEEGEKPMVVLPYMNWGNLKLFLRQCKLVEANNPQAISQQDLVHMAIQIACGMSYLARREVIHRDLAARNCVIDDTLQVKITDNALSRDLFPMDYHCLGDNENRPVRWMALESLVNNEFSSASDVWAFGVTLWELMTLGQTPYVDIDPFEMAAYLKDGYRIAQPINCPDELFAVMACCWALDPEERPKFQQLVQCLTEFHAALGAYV

Wnt3a (Wnt3a conditioned medium) (ligand)
average length of neurites of DRG explants, Ryk siRNA mice against wild type [1]: 2 fold | activation of the TCF-luciferase reporter [2]: 5 fold

over-expressed Ryk (from a transfected DNA construct expressing Ryk) (receptor)
activation of the TCF-luciferase reporter [3]: 25 fold

B1: Wnt-1 (cotransfected in the TCF-luciferase reporter assay) (ligand, UniProt P04628 28-370, looked up, species assumed)
Proto-oncogene Wnt-1: ANSSGRWWGIVNVASSTNLLTDSKSLQLVLEPSLQLLSRKQRRLIRQNPGILHSVSGGLQSAVRECKWQFRNRRWNCPTAPGPHLFGKIVNRGCRETAFIFAITSAGVTHSVARSCSEGSIESCTCDYRRRGPGGPDWHWGGCSDNIDFGRLFGREFVDSGEKGRDLRFLMNLHNNEAGRTTVFSEMRQECKCHGMSGSCTVRTCWMRLPTLRAVGDVLRDRFDGASRVLYGNRGSNRASRAELLRLEPEDPAHKPPSPHDLVYFEKSPNFCTYSGRLGTAGTAGRACNSSSPALDGCELLCCGRGHRTRTQRVTERCNCTFHWCCHVSCRNCTHTRVLHECL
activation of the TCF-luciferase reporter [4]: 25 fold | fold decrease in TCF-driven transcription in Ryk siRNA-containing 293T cells [4]: 12 fold
